Data on 11 molecules can be found in PMC7007523 (Proceedings of the National Academy of Sciences of the …, 2020).

Non-standard residues stand in square brackets, D forms with d. No end group written: not given here. Hyp = O=C(O)[C@@H]1C[C@@H](O)CN1

The subject of one test is GSO1/SGN3. In words: Binding of CIF2^Hyp69,71 to GSO1/SGN3. The following applies: SI Appendix, Fig. S6. Further details: species or system Arabidopsis.
Test [1] concerns the target PEPR1 ectodomain (Arabidopsis) (UniProt Q9SSL9). Briefly: grating-coupled interferometry.
In test [2] the target is GSO2 in the presence of CIF3. Briefly: GCI coreceptor assay, SERK1 and SERK3 vs GSO2 in the presence of CIF3. Particulars: read-out: Kd of SERK binding to GSO2. Further details: species or system Arabidopsis.
The subject of another test is FLS2. Briefly: GCI, SERK3 binding to FLS2. On the set-up: species or system Arabidopsis.
For the next test, the system named is EFR. In words: GCI, SERK3 binding to EFR. On the set-up: species or system Arabidopsis.
Test [3] has as its system GSO1/SGN3 ectodomain (SGN3^WT) - CIF peptide. The following applies: CIF-dependent interaction.
In test [4] the target is BAM1 ectodomain (Arabidopsis) (UniProt O49545). Briefly: grating-coupled interferometry.
Test [5] deals with GSO1/SGN3 ectodomain (residues 19 to 870) (Arabidopsis) (UniProt C0LGQ5). Briefly: ITC. (Isothermal titration calorimetry measures the heat released or taken up as one component is titrated into another.)
The target is the same in test [6]. Briefly: grating-coupled interferometry.
For test [7], the target named is SGN3^3xmut ectodomain (Tyr416, Phe438 and Tyr440 replaced by alanine) (Arabidopsis) (UniProt C0LGQ5). In words: grating-coupled interferometry.
Test [8] deals with FLS2 ectodomain (isolated) (Arabidopsis) (UniProt Q9FL28). In words: grating-coupled interferometry.
For test [9], the target named is GSO2 ectodomain (recombinant) (Arabidopsis) (UniProt Q9FIZ3). In words: grating-coupled interferometry.
Test [10] addresses FLS2 ectodomain (isolated) (Arabidopsis, UniProt Q9FL28 24-806). Briefly: grating-coupled interferometry.
Test [11] addresses T1, GSO1/SGN3 ectodomain (SGN3^WT) - CIF peptide (Arabidopsis thaliana, UniProt C0LGQ5).
T1 sequence (C0LGQ5 19-870): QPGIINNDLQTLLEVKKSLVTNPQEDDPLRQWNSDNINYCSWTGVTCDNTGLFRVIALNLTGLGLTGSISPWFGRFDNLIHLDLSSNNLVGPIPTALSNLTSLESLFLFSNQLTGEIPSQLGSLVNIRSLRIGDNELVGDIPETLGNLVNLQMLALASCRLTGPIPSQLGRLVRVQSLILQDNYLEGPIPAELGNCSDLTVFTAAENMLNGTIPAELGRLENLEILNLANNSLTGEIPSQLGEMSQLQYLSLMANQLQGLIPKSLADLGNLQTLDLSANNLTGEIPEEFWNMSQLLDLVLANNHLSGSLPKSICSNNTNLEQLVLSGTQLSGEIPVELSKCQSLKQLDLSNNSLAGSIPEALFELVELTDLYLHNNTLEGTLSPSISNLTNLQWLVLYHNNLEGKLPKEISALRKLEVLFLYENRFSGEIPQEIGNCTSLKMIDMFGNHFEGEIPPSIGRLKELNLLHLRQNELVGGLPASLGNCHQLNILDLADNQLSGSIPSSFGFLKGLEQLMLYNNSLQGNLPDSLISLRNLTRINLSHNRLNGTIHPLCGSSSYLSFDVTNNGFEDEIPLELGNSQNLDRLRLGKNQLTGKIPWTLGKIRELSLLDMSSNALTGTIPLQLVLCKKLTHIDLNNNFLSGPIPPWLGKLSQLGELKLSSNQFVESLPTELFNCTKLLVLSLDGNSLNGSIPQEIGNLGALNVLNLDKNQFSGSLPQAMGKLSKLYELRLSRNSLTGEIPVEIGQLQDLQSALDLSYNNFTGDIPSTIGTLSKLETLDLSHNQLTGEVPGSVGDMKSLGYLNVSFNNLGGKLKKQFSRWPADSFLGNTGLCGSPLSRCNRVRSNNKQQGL
Particulars: in the absence of CIF peptide.

Chain of PEPR1 ectodomain (Arabidopsis) (Q9SSL9 29-769): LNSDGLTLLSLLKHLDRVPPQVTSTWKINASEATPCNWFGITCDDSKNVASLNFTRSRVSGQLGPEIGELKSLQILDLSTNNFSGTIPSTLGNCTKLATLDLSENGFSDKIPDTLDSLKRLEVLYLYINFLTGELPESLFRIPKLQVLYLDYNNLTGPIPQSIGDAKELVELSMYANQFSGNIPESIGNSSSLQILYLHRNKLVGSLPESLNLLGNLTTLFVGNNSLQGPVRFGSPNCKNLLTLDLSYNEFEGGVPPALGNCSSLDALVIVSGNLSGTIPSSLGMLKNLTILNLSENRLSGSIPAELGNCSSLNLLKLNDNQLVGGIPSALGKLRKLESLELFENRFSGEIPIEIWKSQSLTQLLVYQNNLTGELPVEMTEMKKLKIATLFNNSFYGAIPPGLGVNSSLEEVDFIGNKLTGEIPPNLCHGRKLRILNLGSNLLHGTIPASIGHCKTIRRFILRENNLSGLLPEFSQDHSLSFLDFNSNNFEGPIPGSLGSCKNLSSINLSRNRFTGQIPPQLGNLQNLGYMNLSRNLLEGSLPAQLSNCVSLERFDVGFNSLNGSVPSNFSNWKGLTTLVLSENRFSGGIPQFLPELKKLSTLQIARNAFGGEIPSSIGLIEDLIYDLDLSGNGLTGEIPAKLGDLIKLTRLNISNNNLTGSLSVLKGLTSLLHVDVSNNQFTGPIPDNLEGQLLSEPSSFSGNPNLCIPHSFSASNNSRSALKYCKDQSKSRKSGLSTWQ
Chain of FLS2 ectodomain (isolated) (Q9FL28 24-806): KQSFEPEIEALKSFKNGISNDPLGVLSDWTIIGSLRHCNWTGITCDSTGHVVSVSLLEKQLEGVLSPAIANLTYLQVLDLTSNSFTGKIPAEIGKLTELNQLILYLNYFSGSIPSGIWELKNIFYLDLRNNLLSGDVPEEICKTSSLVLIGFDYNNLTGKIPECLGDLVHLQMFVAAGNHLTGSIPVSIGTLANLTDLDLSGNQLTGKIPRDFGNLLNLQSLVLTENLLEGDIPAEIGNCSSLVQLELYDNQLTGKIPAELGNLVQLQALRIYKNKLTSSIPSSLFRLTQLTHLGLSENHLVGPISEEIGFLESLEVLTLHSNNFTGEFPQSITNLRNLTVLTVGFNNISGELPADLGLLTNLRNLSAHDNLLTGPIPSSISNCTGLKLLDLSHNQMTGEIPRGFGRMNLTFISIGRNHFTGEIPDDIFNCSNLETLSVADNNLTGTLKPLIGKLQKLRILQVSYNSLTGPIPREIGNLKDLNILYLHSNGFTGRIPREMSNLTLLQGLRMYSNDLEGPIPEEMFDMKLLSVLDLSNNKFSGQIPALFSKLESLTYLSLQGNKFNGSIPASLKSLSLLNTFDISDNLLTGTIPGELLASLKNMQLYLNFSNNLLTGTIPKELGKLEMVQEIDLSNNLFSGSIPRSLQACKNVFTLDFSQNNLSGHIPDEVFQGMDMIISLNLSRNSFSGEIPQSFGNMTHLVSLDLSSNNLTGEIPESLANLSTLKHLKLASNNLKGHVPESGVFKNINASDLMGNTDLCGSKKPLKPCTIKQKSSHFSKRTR
Chain of FLS2 ectodomain (isolated) (Arabidopsis) (Q9FL28 24-806): as above
Chain of GSO2 ectodomain (recombinant) (Arabidopsis) (Q9FIZ3 23-876): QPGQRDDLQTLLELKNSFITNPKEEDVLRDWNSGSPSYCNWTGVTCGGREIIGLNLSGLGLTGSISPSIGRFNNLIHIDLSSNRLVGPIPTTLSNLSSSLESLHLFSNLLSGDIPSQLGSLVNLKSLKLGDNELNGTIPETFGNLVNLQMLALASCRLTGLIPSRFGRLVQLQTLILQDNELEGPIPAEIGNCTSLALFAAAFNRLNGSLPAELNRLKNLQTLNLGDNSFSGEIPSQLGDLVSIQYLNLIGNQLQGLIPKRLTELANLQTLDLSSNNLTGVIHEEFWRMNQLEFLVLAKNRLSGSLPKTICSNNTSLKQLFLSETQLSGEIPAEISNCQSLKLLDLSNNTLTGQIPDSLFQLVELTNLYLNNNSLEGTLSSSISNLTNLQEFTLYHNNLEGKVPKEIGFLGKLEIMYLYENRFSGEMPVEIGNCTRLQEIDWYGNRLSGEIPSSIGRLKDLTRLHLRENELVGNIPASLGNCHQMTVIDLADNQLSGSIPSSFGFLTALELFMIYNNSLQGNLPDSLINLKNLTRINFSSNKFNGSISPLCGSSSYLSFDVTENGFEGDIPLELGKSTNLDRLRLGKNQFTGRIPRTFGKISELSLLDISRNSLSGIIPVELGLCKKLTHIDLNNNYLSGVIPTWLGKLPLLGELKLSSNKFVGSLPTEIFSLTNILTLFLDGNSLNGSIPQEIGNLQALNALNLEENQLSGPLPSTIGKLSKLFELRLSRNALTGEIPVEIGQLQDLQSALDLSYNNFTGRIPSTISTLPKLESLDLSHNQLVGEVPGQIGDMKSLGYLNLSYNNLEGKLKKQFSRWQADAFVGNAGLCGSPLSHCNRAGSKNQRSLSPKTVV
Chain of BAM1 ectodomain (Arabidopsis) (O49545 20-640): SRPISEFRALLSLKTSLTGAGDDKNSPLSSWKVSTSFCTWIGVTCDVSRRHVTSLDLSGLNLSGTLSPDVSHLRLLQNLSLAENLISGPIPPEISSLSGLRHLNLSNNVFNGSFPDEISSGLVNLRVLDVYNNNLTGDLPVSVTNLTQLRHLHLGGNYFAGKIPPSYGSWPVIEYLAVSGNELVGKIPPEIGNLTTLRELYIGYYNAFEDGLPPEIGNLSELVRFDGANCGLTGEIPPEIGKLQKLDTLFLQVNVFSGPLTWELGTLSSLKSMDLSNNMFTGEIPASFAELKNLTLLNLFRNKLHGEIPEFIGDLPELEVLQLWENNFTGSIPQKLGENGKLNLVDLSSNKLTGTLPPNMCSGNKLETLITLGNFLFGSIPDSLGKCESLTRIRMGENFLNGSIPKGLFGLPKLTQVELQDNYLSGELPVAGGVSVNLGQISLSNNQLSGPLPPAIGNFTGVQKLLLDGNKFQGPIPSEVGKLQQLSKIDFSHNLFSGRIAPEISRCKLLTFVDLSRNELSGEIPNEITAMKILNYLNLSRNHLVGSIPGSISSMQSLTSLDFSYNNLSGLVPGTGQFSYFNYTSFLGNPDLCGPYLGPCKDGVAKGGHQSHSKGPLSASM

Take “CIF2^Hyp69,71: CIF2 with hydroxyprolines at positions 69 and 71 (GRSSILIYSQEDDHPEVVERRIHEHERILRMNSRDYGHSS[Hyp]K[Hyp]KLVRPPFKLIPN)”: the “dissociation constant compared with CIF2^WT” value with GSO1/SGN3 is recorded as “very similar dissociation constants”. For the molecule “PEP2 danger signal peptide (23 amino acids) (from UniProt Q9LV88 74-109)”, the Kd – broadly, the concentration at which binding is half-saturated – in [1] stood at 20000 nM. As to “SERK3: recombinant LRR ectodomain of the SERK3 coreceptor kinase”, the Kd in [2] fell in the range of 20 to 80 nM. Moreover, the “affinity of SERK3 binding” value in the test on FLS2 and in the test on EFR was “low micromolar affinity” each time. Besides, the “interaction of coreceptor candidate with GSO1/SGN3 in GCI assays” value in [3] is “interacts”.

As for CLE9 peptide (12 amino acids), in test [4], the Kd was 1 nM. Consider “CIF2 peptide, synthetic sTyr-containing (CIF2^WT) (from UniProt O65684 29-83)”, for which, in [5], the equilibrium dissociation constant (Kd) stood at 40 nM and the stoichiometry N (commonly a count of units in the complex or per binding partner) stood at 1. Besides, the Kd in test [6] is 2 nM. Also, the fold reduction of CIF2 binding against wild-type GSO1/SGN3 in [7] came to 10 fold. Molecule flg22 immune elicitor peptide returned a Kd in test [8] of 1500 nM. As to CIF4 peptide (wild type), in test [5], the Kd came out at 300 nM and the stoichiometry N came to 1. “PEP1 danger signal peptide (23 amino acids)” yielded a Kd in test [1] of 100 nM. For the molecule “CIF3 peptide, tyrosine sulfated (CIF3^WT)”, the Kd in test [6] and in [9] was 4 nM in each case.

B1: SERK3 LRR ectodomain (receptor, Arabidopsis, UniProt Q94F62 26-225, looked up)
chain: NAEGDALSALKNSLADPNKVLQSWDATLVTPCTWFHVTCNSDNSVTRVDLGNANLSGQLVMQLGQLPNLQYLELYSNNITGTIPEQLGNLTELVSLDLYLNNLSGPIPSTLGRLKKLRFLRLNNNSLSGEIPRSLTAVLTLQVLDLSNNPLTGDIPVNGSFSLFTPISFANTKLTPLPASPPPPISPTPPSPAGSNRITG
Regarding B1, the binding result in test [10] is recorded as “binds”.

B2: SERK1: recombinant LRR ectodomain of the SERK1 coreceptor kinase (residues 24 to 213) (protein)
chain: ASANLEGDALHTLRVTLVDPNNVLQSWDPTLVNPCTWFHVTCNNENSVIRVDLGNAELSGHLVPELGVLKNLQYLELYSNNITGPIPSNLGNLTNLVSLDLYLNSFSGPIPESLGKLSKLRFLRLNNNSLTGSIPMSLTNITTLQVLDLSNNRLSGSVPDNGSFSLFTPISFANNLDLCGPVTSHPCPGS
Regarding B2, the Kd in test [2] fell in the range of 20 to 80 nM. Further, in [11], the “SERK1 binding to SGN3” value was “No SERK1 binding”.
